Here are results for 11 molecules from patent US20190263922A1 (TIGA TX, published 2019).

Usually Kd stands for the free concentration of one partner at which half of the binding sites on the other are occupied at equilibrium, for simple one-to-one binding. A low value points to tighter binding. The koff is the rate constant with which the complex falls apart. A lower koff goes with a long-lived complex. As usually defined, the kon is a measure of how fast the partners come together. A lower kon goes with slow association.

Assay [1] has as its target T1, human CD20 (human, UniProt P11836 1-297).
T1 construct: whole, on cells; Always presented on cells; also called MS4A1; CD20 WT
T1 sequence (looked up): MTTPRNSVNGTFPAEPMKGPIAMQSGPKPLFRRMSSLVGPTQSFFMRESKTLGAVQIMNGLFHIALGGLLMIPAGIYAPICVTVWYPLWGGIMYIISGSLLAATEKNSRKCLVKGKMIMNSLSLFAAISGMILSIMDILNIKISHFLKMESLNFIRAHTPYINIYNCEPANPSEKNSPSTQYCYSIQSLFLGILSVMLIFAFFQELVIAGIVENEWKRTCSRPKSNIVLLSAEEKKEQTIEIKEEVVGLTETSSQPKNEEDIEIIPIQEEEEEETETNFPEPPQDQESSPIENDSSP
Put plainly: LigandTracer Green, 10 nM FITC-labeled mAb on SKBR3-CD20 cells, OneToOne fit, non-competitive dissociation. Here is the method: (§1) Kinetics analysis of interactions between the mAbs and CD20 was performed by using the LigandTracer green Technology (Ridgeview Instruments AB). 10⁶ SKBR3-CD20 cells were seeded on one side of a 10 cm culture dish (Greiner) as target cell area and association of 10 nM FITC-labeled CD20 mAb was measured. For non-competitive or competitive dissociation, labeled mAb solution was replaced by RPMI culture medium or 100 nM unlabeled mAb of the same clone, respectively. Analysis was performed using an OneToOne fitting model in TraceDrawer (Ridgeview Instruments AB).
(§2) A slow Ab off-rate might favor the formation of Ab-Clq complexes, the first component of the classical complement pathway. […] To characterize interaction kinetics and affinity of mAbs, we used the LigandTracer technology to record real-time binding and dissociation of Abs to cellular receptors.

For assay [2], the target named is T1, human CD20. The assay is described as follows: LigandTracer Green, 10 nM FITC-labeled mAb on SKBR3-CD20 cells, OneToOne fit, competitive dissociation (100 nM unlabeled mAb of the same clone). Here is the method: as §1, §2
Assay [3] addresses T1, human CD20. The assay is described as follows: binding assay, parental against L11V version, data not shown.
Assay [4] concerns the target T1, human CD20. The assay is described as follows: FACS on Ramos cells, dilution series.
The target of assay [5] is T1, human CD20. Put plainly: FACS on Daudi cells, dilution series. Here is the method: FIG. 8. […] Binding was determined by FACS after incubation of Daudi cells with a dilution series of mAb.
10⁵ Daudi cells were plated out in a 96-well plate and incubated with IgG1-CD20 mAbs (in PBS) for 45 min on ice. After washing, bound CD20 mAbs were detected with goat-F(ab′)₂-anti-hIgG-RPE (Southern Biotech) and subsequently measured on a FACS Canto II (BD).

B1: m2 (mIgG2c-CD20 mAb) (antibody, V domains shown)
VH: QAYLQQSGAELVRPGASVKMSCKASGYTFTSYNMHWVKQTPRQGLEWIGGIYPGNGDTSYNQKFKGKATLTVDKSSSTAYMQLSSLTSEDSAVYFCARYYYGSSYGAMDYWGQGTSVTVSS
VL: QIVLSQSPAILSASPGEKVTMTCRASSSVSYMHWYQQKPGSSPKPWIYATSNLASGVPARFSGSGSGTSYSLTISRVEAADAATYYCHQWTFNPPTFGGGTKLEIK
modifications: FITC- or Alexa647-labelled in the kinetic assays; label sites not given
notes: Mouse IgG2c hybridoma mAb; FITC- or Alexa647-labeled in the kinetic assays
B1: in assay [1], the dissociation constant (Kd) worked out at 0.21 nM, the koff came to 1.77e-05 s⁻¹ and the on-rate (kon) came out at 85400 M⁻¹ s⁻¹. In assay [2], this molecule returned a dissociation constant (Kd) of 0.96 nM, a koff of 7.8e-05 s⁻¹ and a kon of 81700 M⁻¹ s⁻¹.

B2: m10 (mIgG2c-CD20 mAb) (antibody, V domains shown)
VH: QAYLQQSGADLVRPGASVKMSCKASGFTFPSYNLHWVKQTPRQGLEWIGAIYPGNGDTSYNQKFKGKATLTVDKSSSTAYMQLSSLTSEDSAVYFCARSAYYGSNVWFFDVWGTGTTVTVSS
VL: QIVLSQSPAILSASPGEKVTMTCRASSSVSYMDWYQQKPGSSPKPWIYATSNLASGVPTRFSGSGSGTSYSLTISRVEAEDAATYYCQQWISNPPTFGAGTKLDLK
modifications: FITC-labelled in the LigandTracer assay; label sites not given
notes: Mouse IgG2c hybridoma mAb; FITC-labeled in LigandTracer
In assay [1], B2 gave a Kd of 0.19 nM, a koff of 8.17e-06 s⁻¹ and an on-rate (kon) of 44200 M⁻¹ s⁻¹. Also, in assay [2], the Kd was 0.51 nM, the koff stood at 2.82e-05 s⁻¹ and the kon came to 55700 M⁻¹ s⁻¹.

B3: m9 (mIgG2c-CD20 mAb) (antibody, V domains shown)
VH: QAYLQQSGAELVRPGASVKMSCKASGYTFPSYNMHWVKQTPRQGLEWIGAIYPGNGDTSYNQKFKGKASQTVDKSSSTVYMQLSSLTSADSAVYFCARSRLFDSSYGWYFDVWGTGTTVTVSS
VL: QIVLSQSPAILSAYPGEKVTMTCRARSSVSYIDWYQQKAGSSPKPWIYATSNLASGVPARFSGSGSGTSYSLTISRVEAEDAATYYCQQWTSNPPTFGGGTKLEIK
modifications: FITC-labelled antibody in the LigandTracer assay; the label positions are not defined.
notes: as for B2
In assay [1], B3 returned a Kd of 0.25 nM, a koff of 1.13e-05 s⁻¹ and an association rate constant (kon) of 45700 M⁻¹ s⁻¹. In assay [2], the Kd turned out to be 0.12 nM, the koff turned out to be 6.53e-06 s⁻¹ and the kon was 53900 M⁻¹ s⁻¹.

B4: IgG1-CD20-1 with the L11V mutation (antibody)
heavy: not shown
light: QIVLSQSPAVLFASPGEKVTMTCRARSSVSYMDWYQQKPRSSPKPWIYATSNLASGVPARFSGSGSGTSYSLTISRVEAEDAATYYCQQWTSNPPTFGSGTKLEIKRTVAAPSVFIFPPSDEQLKSGTASVVCLLNNFYPREAKVQWKVDNALQSGNSQESVTEQDSKDSTYSLSSTLTLSKADYEKHKVYACEVTHQGLSSPVTKSFNRGEC
notes: Chimeric human IgG1/kappa; leucine to valine at Kabat position 11 of the VH framework; also called IgG1-CD20-1 L11V
Turning to B4, in assay [3], the binding result is recorded as “binds”.

B5: IgA2 variant of m1 (IgA-CD20-1 as IgA2(m1)) (antibody)
heavy: QAYLQQSGAELVRPGASVKMSCKASGYTFTSYNLHWVKQTPRQGLEWIGAIYPGNGDTSYNQKFKGKATLTVDKSSSTAYMQLSRLTSEDSAVYFCARSNSYGSTYWYFDVWGTGTTVTVSSASPTSPKVFPLSLDSTPQDGNVVVACLVQGFFPQEPLSVTWSESGQNVTARNFPPSQDASGDLYTTSSQLTLPATQCPDGKSVTCHVKHYTNPSQDVTVPCPVPPPPPCCHPRLSLHRPALEDLLLGSEANLTCTLTGLRDASGATFTWTPSSGKSAVQGPPERDLCGCYSVSSVLPGCAQPWNHGETFTCTAAHPELKTPLTANITKSGNTFRPEVHLLPPPSEELALNELVTLTCLARGFSPKDVLVRWLQGSQELPREKYLTWASRQEPSQGTTTFAVTSILRVAAEDWKKGDTFSCMVGHEALPLAFTQKTIDRLAGKPTHVNVSVVMAEVDGTCY
light: QIVLSQSPAVLFASPGEKVTMTCRARSSVSYMDWYQQKPRSSPKPWIYATSNLASGVPARFSGSGSGTSYSLTISRVEAEDAATYYCQQWTSNPPTFGSGTKLEIKRTVAAPSVFIFPPSDEQLKSGTASVVCLLNNFYPREAKVQWKVDNALQSGNSQESVTEQDSKDSTYSLSSTLTLSKADYEKHKVYACEVTHQGLSSPVTKSFNRGEC
notes: Monomeric human IgA2(m1) constant region (pEE14.4-IgA2(m1)) and human kappa light chain; also called IgA2-CD20 mAb; IgA2-CD20 UMAB001
B5: the binding result in assay [4] is “binds”.

B6: IgA1 variant of m1 (IgA-CD20-1 as IgA1) (antibody)
heavy: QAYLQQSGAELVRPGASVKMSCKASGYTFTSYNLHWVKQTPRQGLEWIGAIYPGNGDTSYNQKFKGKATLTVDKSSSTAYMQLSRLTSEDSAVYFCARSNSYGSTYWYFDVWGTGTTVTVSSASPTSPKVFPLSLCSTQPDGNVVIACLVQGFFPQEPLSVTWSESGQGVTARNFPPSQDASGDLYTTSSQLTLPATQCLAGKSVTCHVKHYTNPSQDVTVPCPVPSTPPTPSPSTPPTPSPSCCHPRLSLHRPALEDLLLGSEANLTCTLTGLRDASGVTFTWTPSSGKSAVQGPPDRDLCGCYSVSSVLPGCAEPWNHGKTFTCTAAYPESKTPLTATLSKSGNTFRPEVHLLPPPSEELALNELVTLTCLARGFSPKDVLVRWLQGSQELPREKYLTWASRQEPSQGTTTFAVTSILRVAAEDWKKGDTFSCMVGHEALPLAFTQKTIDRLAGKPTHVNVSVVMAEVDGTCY
light: QIVLSQSPAVLFASPGEKVTMTCRARSSVSYMDWYQQKPRSSPKPWIYATSNLASGVPARFSGSGSGTSYSLTISRVEAEDAATYYCQQWTSNPPTFGSGTKLEIKRTVAAPSVFIFPPSDEQLKSGTASVVCLLNNFYPREAKVQWKVDNALQSGNSQESVTEQDSKDSTYSLSSTLTLSKADYEKHKVYACEVTHQGLSSPVTKSFNRGEC
notes: Monomeric human IgA1 constant region (pEE14.4-IgA1) and human kappa light chain; also called IgA1-CD20 mAb; IgA1-CD20 UMAB001
For B6, the binding result in assay [4] was “binds”.

B7: IgA1 variant of m2 (IgA-CD20-2 as IgA1) (antibody)
heavy: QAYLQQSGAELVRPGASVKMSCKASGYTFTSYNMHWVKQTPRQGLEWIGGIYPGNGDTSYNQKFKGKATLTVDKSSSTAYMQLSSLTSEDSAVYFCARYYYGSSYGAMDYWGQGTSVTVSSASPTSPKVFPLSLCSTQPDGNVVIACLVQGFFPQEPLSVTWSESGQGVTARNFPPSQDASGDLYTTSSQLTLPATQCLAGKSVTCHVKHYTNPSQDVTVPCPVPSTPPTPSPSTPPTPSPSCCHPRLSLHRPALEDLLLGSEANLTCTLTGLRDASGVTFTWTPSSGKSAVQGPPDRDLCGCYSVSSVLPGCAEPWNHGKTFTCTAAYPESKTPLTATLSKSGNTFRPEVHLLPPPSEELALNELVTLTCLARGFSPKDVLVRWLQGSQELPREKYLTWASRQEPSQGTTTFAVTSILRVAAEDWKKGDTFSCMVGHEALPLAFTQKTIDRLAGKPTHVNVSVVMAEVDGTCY
light: QIVLSQSPAILSASPGEKVTMTCRASSSVSYMHWYQQKPGSSPKPWIYATSNLASGVPARFSGSGSGTSYSLTISRVEAADAATYYCHQWTFNPPTFGGGTKLEIKRTVAAPSVFIFPPSDEQLKSGTASVVCLLNNFYPREAKVQWKVDNALQSGNSQESVTEQDSKDSTYSLSSTLTLSKADYEKHKVYACEVTHQGLSSPVTKSFNRGEC
notes: Monomeric human IgA1 constant region (pEE14.4-IgA1) and human kappa light chain; also called IgA1-CD20 mAb; IgA1-CD20 UMAB002
Turning to B7, the binding result in assay [4] was “binds”.

B8: IgA2 variant of m2 (IgA-CD20-2 as IgA2(m1)) (antibody)
heavy: QAYLQQSGAELVRPGASVKMSCKASGYTFTSYNMHWVKQTPRQGLEWIGGIYPGNGDTSYNQKFKGKATLTVDKSSSTAYMQLSSLTSEDSAVYFCARYYYGSSYGAMDYWGQGTSVTVSSASPTSPKVFPLSLDSTPQDGNVVVACLVQGFFPQEPLSVTWSESGQNVTARNFPPSQDASGDLYTTSSQLTLPATQCPDGKSVTCHVKHYTNPSQDVTVPCPVPPPPPCCHPRLSLHRPALEDLLLGSEANLTCTLTGLRDASGATFTWTPSSGKSAVQGPPERDLCGCYSVSSVLPGCAQPWNHGETFTCTAAHPELKTPLTANITKSGNTFRPEVHLLPPPSEELALNELVTLTCLARGFSPKDVLVRWLQGSQELPREKYLTWASRQEPSQGTTTFAVTSILRVAAEDWKKGDTFSCMVGHEALPLAFTQKTIDRLAGKPTHVNVSVVMAEVDGTCY
light: QIVLSQSPAILSASPGEKVTMTCRASSSVSYMHWYQQKPGSSPKPWIYATSNLASGVPARFSGSGSGTSYSLTISRVEAADAATYYCHQWTFNPPTFGGGTKLEIKRTVAAPSVFIFPPSDEQLKSGTASVVCLLNNFYPREAKVQWKVDNALQSGNSQESVTEQDSKDSTYSLSSTLTLSKADYEKHKVYACEVTHQGLSSPVTKSFNRGEC
notes: Monomeric human IgA2(m1) constant region (pEE14.4-IgA2(m1)) and human kappa light chain; also called IgA2-CD20 mAb; IgA2-CD20 UMAB002
Consider B8, for which, in assay [4], the binding result is “binds”.

B9: IgG1-CD20-9 (antibody, V domains shown)
VH: QAYLQQSGAELVRPGASVKMSCKASGYTFPSYNMHWVKQTPRQGLEWIGAIYPGNGDTSYNQKFKGKASQTVDKSSSTVYMQLSSLTSADSAVYFCARSRLFDSSYGWYFDVWGTGTTVTVSS
VL: QIVLSQSPAILSAYPGEKVTMTCRARSSVSYIDWYQQKAGSSPKPWIYATSNLASGVPARFSGSGSGTSYSLTISRVEAEDAATYYCQQWTSNPPTFGGGTKLEIKR
notes: Chimeric: human IgG1 constant region and human kappa light chain; also called chimerized version of m9
As to B9, the binding result in assay [5] is “binds”.

B10: IgG1-CD20-10 (antibody, V domains shown)
VH: QAYLQQSGADLVRPGASVKMSCKASGFTFPSYNLHWVKQTPRQGLEWIGAIYPGNGDTSYNQKFKGKATLTVDKSSSTAYMQLSSLTSEDSAVYFCARSAYYGSNVWFFDVWGTGTTVTVSS
VL: QIVLSQSPAILSASPGEKVTMTCRASSSVSYMDWYQQKPGSSPKPWIYATSNLASGVPTRFSGSGSGTSYSLTISRVEAEDAATYYCQQWISNPPTFGAGTKLDLKR
notes: Chimeric: human IgG1 constant region and human kappa light chain; also called chimerized version of m10
Regarding B10, the binding result in assay [5] is “binds”.

B11: IgG1-CD20-7 (antibody, V domains shown)
VH: QAYLQQSGAELVRPGASVKMSCKASGYTFASYNMHWIKQTPRQGLEWIAAIYPGNGDTSYNQKFKGKATLTVDKSSSTAYMQLSSLTSEDSAVYFCARTYYYGSSPYWSFDVWGTGTTVTVSS
VL: DIQMTQSPASLSASVGETVTVTCGASYNIYGALNWYQRKQGKSPQLLIYGATNLADGMSSRFSGSGSGRQYSLKISSLHPDDVATYYCQNVLSNPPTFGGGTKLEIKR
notes: Chimeric: human IgG1 constant region and human kappa light chain; also called chimerized version of m7
With B11, the binding result in assay [5] is on record as “binds”.
